Experimental data from patent publication US20110201077.

System: recombinant streptokinase produced with the pET21b expression construct (double-mutant, plasmin-resistant, polyhistidine-tagged)

Row | Substance | streptokinase proteolysis followed by Western blot, 1:1 mole ratio (data not shown) | conversion of recombinant plasminogen to recombinant plasmin, time course on reducing SDS-PAGE, 100:1 mole ratio plasminogen:streptokinase
1 | recombinant plasmin | a very stable streptokinase fragment was generated, even at t=18 hours into the reaction | 
2 | recombinant plasminogen |  | At t=18 hours into the reaction, nearly all of the recombinant plasminogen had been converted to recombinant plasmin
